Measurements: patent publication US20210395713A1 (TRUSTEES OF DARTMOUTH COLLEGE, published 2021)
Read-outs that look alike come from different tables or passages of the source.

B1: cluster 1 wild-type (C1WT) epitope peptide (peptide)
peptide: SAQWLNNYKKGYGYG
B2: cluster 1 peptide with Asn13His (peptide)
peptide: SAQWLNHYKKGYGYG
notes: synthetic mutated peptide of the lysostaphin catalytic domain
B3: cluster 1 peptide with Asn12Gly (peptide)
peptide: SAQWLGNYKKGYGYG
notes: as for B2
B4: cluster 2 wild-type (C2WT) epitope peptide (peptide)
peptide: GVDFFMNIGTPVKAISSGKIV
B5: cluster 2 peptide with Lys46His (peptide)
peptide: GVDFFMNIGTPVHAISSGKIV
notes: synthetic mutated peptide of the lysostaphin catalytic domain; also called K46H
B6: cluster 2 peptide with Ile41Glu (peptide)
peptide: GVDFFMNEGTPVKAISSGKIV
notes: synthetic mutated peptide of the lysostaphin catalytic domain; also called I41E
B7: cluster 2 peptide with Ile41Glu/Lys46His (peptide)
peptide: GVDFFMNEGTPVHAISSGKIV
notes: synthetic mutated peptide of the lysostaphin catalytic domain; also called 41_46
B8: cluster 5 peptide with Ser124Gly (peptide)
peptide: HLHFQRMVNSFGNPTAQ
notes: synthetic mutated peptide of the lysostaphin catalytic domain; also called S124G
B9: cluster 4 wild-type (C4WT) epitope peptide (peptide)
peptide: DYVKAGQIIGWSGSTGY

Experiments:
Experiment in all cases: MHC II competition binding assay
[1] = target: T1, purified recombinant MHC II protein, allele DRB1*0101 (human)
T1 construct: bought from Benaroya Research Institute; also called MHC-II DR molecule

[2] = target: T2, purified recombinant MHC II protein, allele DRB1*0801 (human)
T2 construct: bought from Benaroya Research Institute; also called MHC-II DR molecule

[3] = target: T3, purified recombinant MHC II protein, allele DRB1*1101 (human)
T3 construct: bought from Benaroya Research Institute; also called MHC-II DR molecule

[4] = target: T4, purified recombinant MHC II protein, allele DRB1*1301 (human)
T4 construct: bought from Benaroya Research Institute; also called MHC-II DR molecule

[5] = target: T5, purified recombinant MHC II protein, allele DRB1*1501 (human)
T5 construct: bought from Benaroya Research Institute; also called MHC-II DR molecule

[6] = target: T1, purified recombinant MHC II protein, …; remark: listed apart in the source
[7] = target: T6, purified recombinant MHC II protein, allele DRB1*0301 (human)
T6 construct: bought from Benaroya Research Institute; also called MHC-II DR molecule

[8] = target: T7, purified recombinant MHC II protein, allele DRB1*0401 (human)
T7 construct: bought from Benaroya Research Institute; also called DR4; MHC-II DR molecule

[9] = target: T8, purified recombinant MHC II protein, allele DRB1*0701 (human)
T8 construct: bought from Benaroya Research Institute; also called MHC-II DR molecule

[10] = target: T3, purified recombinant MHC II protein, …; remark: listed apart in the source
[11] = target: T4, purified recombinant MHC II protein, …; remark: listed apart in the source
[12] = target: T5, purified recombinant MHC II protein, …; remark: listed apart in the source
[13] = target: T1, purified recombinant MHC II protein, …; remark: listed apart in the source
[14] = target: T2, purified recombinant MHC II protein, …; remark: listed apart in the source
[15] = target: T1, purified recombinant MHC II protein, …; remark: listed apart in the source
[16] = target: T7, purified recombinant MHC II protein, …; remark: listed apart in the source
[17] = target: T8, purified recombinant MHC II protein, …; remark: listed apart in the source
[18] = target: T3, purified recombinant MHC II protein, …; remark: listed apart in the source
[19] = target: T5, purified recombinant MHC II protein, …; remark: listed apart in the source
[20] = target: T1, purified recombinant MHC II protein, …; remark: listed apart in the source
[21] = target: T6, purified recombinant MHC II protein, …; remark: listed apart in the source
[22] = target: T7, purified recombinant MHC II protein, …; remark: listed apart in the source
[23] = target: T8, purified recombinant MHC II protein, …; remark: listed apart in the source
[24] = target: T2, purified recombinant MHC II protein, …; remark: listed apart in the source
[25] = target: T3, purified recombinant MHC II protein, …; remark: listed apart in the source
[26] = target: T4, purified recombinant MHC II protein, …; remark: listed apart in the source
[27] = target: T5, purified recombinant MHC II protein, …; remark: listed apart in the source

Binder	IC50 [3]	IC50 [6]	IC50 [8]	IC50 [9]	IC50 [10]	IC50 [11]	IC50 [12]	other results
B1	0.94 µM							IC50 [1]: 215 µM; IC50 [2]: 13.7 µM; IC50 [4]: 137 µM; IC50 [5]: 102 µM
B2	4.13 µM							IC50 [4]: 41.6 µM
B3	5.16 µM							IC50 [1]: < 0.01 µM; IC50 [2]: 58.6 µM
B4		0.22 µM	13.7 µM	8.19 µM	10.1 µM	104 µM	2.37 µM	IC50 [7]: 60.1 µM
B5		0.49 µM	1.65 µM	4.46 µM	18.3 µM	212 µM	2.55 µM	fold decrease in binding against C2WT [13]: 2 fold; IC50 [7]: 152 µM; IC50 [14]: 87.5 µM
B6		0.59 µM	3.48 µM	7.51 µM	146 µM	143 µM	7.44 µM	
B7		< 0.01 µM	< 0.01 µM	14.3 µM	< 0.01 µM		< 0.01 µM	
B8								IC50 [15]: < 0.01 µM; IC50 [16]: 0.04 µM; IC50 [17]: 151 µM; IC50 [18]: 0.3 µM; IC50 [19]: < 0.01 µM
B9								IC50 [20]: < 0.01 µM; IC50 [21]: 31.4 µM; IC50 [22]: < 0.01 µM; IC50 [23]: 92.9 µM; IC50 [24]: 62.5 µM; IC50 [25]: 1.69 µM; IC50 [26]: 78.5 µM; IC50 [27]: < 0.01 µM
